According to patent publication US20100144838A1, “Methods for Identifying Modulators of Pyrimidine Tract Binding Protein” (priority 2008, published 2010):

What was measured:
A2780 sublines = assay: Tumor growth in xenograft mouse model; assay type: in vivo, Athymic nu/nu mice; conditions: subcutaneous A2780 sublines; DOX 2 mg/ml in drinking water from inoculation or 12 days after; FIG. 3
Excerpt: siRNA technology was .used to knock down the expression of PTB in tumor cells and to examine the effects of such manipulations on cell growth and malignant properties. Three siRNA (PTBsi1, PTBsi2, and PTBsi3) sequences targeting different regions of PTB mRNA were used. A siRNA can be generated as described in PCT/US2007/007352, which is herein fully incorporated by reference. Each of PTBsi1, PTBsi2, and PTBsi3 may be generated in a cell from a shRNA, which is formed after transcription of its coding sequence. The annealing of two oligonucleotides generates a DNA fragment with protruding ends compatible with Hind III and Bgl II restriction enzyme sites respectively. The coding sequences for each siRNA were cloned individually into a lentiviral vector downstream of H1 promoter and tetO element and thus the expression of these siRNAs is under control of doxycycline (DOX) (i.e. induced by DOX). We established several stable sublines carrying these expression cassettes. […] We have also examined whether knockdown of PTB could influence ovarian tumor cell growth in xenograft mouse model. […] Invasive cells were counted under microscope with high magnification (150×). […] Tumor sizes were measured in long and short dimensions every three or four days. Tumor size was calculated with formula axb2/2, where a=long dimension and b=short dimension. […]

PTB = assay: Gene expression profiling, Affymetrix HG-U133 plus 2 oligonucleotide arrays; assay type: cell-based; conditions: A2780/PTBsi3 cells treated with DOX
Procedure: Microarray analyses of genome-wide splicing patterns and gene expression profiling were performed in A2780/PTBsi3 cells with or without PTB knockdown. Gene expression profiling was assessed using Affymetrix HG-U133 plus 2 oligonucleotide arrays, and the splicing pattern was assessed by Jivan Biologics' splicing-sensitive microarrays. The former analysis was done three times and the latter was done twice with total RNAs isolated from separate experiments. We also examined the gene expression profile once in the control subline, A2780/LUCsi, grown with or without DOX.
However, in A2780/PTBsi3 cells treated with DOX (i.e. PTB knockdown), 52 genes were found consistently changed more than 2-fold in all three separate experiments. […] In total, we found 50 genes whose expression was regulated by PTB. […] We have validated these changes in a few of these genes (INHBE, CDC42, PTBP2 and PKP4) by real-time PCR or conventional RT-PCR.

| Molecule | tumor growth (A2780 sublines) | PTB downregulation (PTB; all three experiments) | genes consistently changed more than 2-fold (PTB; three separate experiments, signal intensity cutoff 200) |
| --- | --- | --- | --- |
| PTBsi3: siRNA targeting PTB mRNA, DOX-induced, generated in a cell from shRNA3 (SEQ ID NO: 5 and 6) (nucleic acid) chain 1: GATCCCTGACAAGAGCCGTGACTACTTCAAGAGAGTAGTCACGGCTCTTGTCATTTTTGGAAA chain 2: AGCTTTTCCAAAAATGACAAGAGCCGTGACTACTCTCTTGAAGTAGTCACGGCTCTTGTCAGGG | grew slower | about 4 fold | 52 genes |
| PTBsi1: siRNA targeting PTB mRNA, DOX-induced, generated in a cell from shRNA1 (SEQ ID NO: 1 and 2) (nucleic acid) chain 1: GATCCCCAGGTGACAGCCGAAGTGCATTCAAGAGATGCACTTCGGCTGTCACCTTTTTTGGAAA chain 2: AGCTTTTCCAAAAATGCACTTCGGCTGTCACCTTCTCTTGAAAGGTGACAGCCGAAGTGCAGGG | grew slower |  |  |
